This passage reports binding result and Kd results from patent US20050042220A1 (GENETICS INSTITUTE, published 2005).

Assay [1] deals with T1, human IL-22R extracellular domain-Fc fusion homodimer (human, UniProt Q8N6P7 16-228).
T1 construct: extracellular domain; Used as CHO conditioned medium, not purified; also called IL-22R-Fc; IL-22RECD-Fc; not shown: human IgG1 Fc
T1 sequence: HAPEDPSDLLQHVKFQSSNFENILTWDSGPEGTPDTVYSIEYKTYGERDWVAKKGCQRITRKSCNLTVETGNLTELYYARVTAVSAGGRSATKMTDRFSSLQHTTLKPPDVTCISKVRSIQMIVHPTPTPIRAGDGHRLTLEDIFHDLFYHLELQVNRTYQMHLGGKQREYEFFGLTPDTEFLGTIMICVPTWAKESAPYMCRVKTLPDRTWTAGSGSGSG
The experiment in a line: sandwich ELISA: rabbit anti-hIL-22R coat, 1:1 mixture of IL-22R-Fc and IL-10R2-Fc media titrated, biotinylated goat anti-hIL-10R2 then streptavidin-HRP, A450. The protocol: Monomeric IL-22RECD-Fc and IL-10R2ECD-Fc fusions were determined to have molecular weights of ˜60 kD and ˜85 kD, respectively. Reduced and non-reduced conditioned media (CM) from CHO cells expressing either or both receptor Fc fusions was separated on SDS-PAGE gels and blotted to a membrane which was then probed with polyclonal antibodies directed against either human IgG Fc, IL-22R or IL-10R2. More specifically, in FIG. 7A, conditioned media from CHO cells expressing either IL-22R-Fc, IL-10R2-Fc or both receptor Fc were separated on 8% polyacyrlamide gels under both reduced (+βME) and non-reduced (−βME) conditions and transferred to membrane blots. Western blots were carried out using any of anti-human IgG1, anti-hIL-22R or anti-hIL-10R2 antibodies. For anti-hIgG detection of a blot, 4 ng total Fc fusion in CM was loaded in each lane. For anti-IL-22R and anti-IL-10R2 antibody detection, 16 ng total Fc fusion in CM from co-expressing CHO was used. […] The bound receptors were detected using a biotinylated goat anti-human IL-10R2 antibody, followed by streptavidin-HRP.
The presence of heterodimers in the CM from CHO cells was verified by sandwich ELISA, using antibodies specific for each chain of the heterodimer. Conditioned media was added to wells coated with an IL-22R polyclonal antibody and bound protein was then detected with a biotinylated IL-10R2 polyclonal antibody. […]
For orientation: In an ELISA, binding on a coated surface is turned into a signal by an enzyme label.

In assay [2] the target is T2, IL-22R-Fc/IL-10R2-Fc heterodimer from co-expressing CHO cells (human, UniProt Q8N6P7 16-228; Q08334 20-220).
T2 construct: extracellular domain; also called IL-22R/IL-10R2-Fc heterodimer; IL-22R-Fc/IL-10R2-Fc complex; not shown: human IgG1 Fc
T2 sequence 1: T1 sequence
T2 sequence 2: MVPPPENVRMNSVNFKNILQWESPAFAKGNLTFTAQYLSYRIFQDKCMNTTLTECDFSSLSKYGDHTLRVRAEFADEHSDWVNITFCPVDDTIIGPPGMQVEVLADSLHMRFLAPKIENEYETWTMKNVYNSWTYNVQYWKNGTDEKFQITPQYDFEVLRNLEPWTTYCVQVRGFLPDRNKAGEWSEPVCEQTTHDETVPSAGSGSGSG
The experiment in a line: BIAcore, receptor-Fc from conditioned medium captured by anti-human IgG, IL-22 injected, 1:1 model. As for the experimental part:
(§1) The surface was activated with EDC/NHS. The capturing antibody was injected at a concentration of 50 ug/ml in sodium acetate buffer (pH 4.5), the Protein-A was injected at a concentration of 50 ug/ml in sodium acetate buffer (pH 4.0), or test protein was directly injected at a concentration of 0.01-1 ug/ml in sodium acetate buffer (pH 5.0). The immobilization was done using the wizard tools with aim of 10.000 resonance units (RUs) for the anti-hu or anti-rat IgG, 3000 (RUs) for the Protein-A and […] (RUs) for the directly immobilized testing protein. Remaining activated groups were blocked with 1.0 M ethanolamine (pH 8.0). As control the first flow cell was used as reference surface to correct for bulk refractive index, matrix effects and non-specific binding, the second, third and four flow cells were coated with the capturing molecule.
(§2) For kinetic analysis, condition media containing IL-22R-Fc, IL-10R2-Fc, IL-22R-Fc/IL-10R2-Fc receptor complex or IL-22BP-Fc protein were captured onto the anti-human IgG antibody or protein A surfaces. The rat antibodies were captured onto the anti-rat IgG antibody surface, by injecting 60 ul of a 400 ng/ml solution. […] The dissociation phase was monitored in HBS/EP buffer for 10 minutes at the same flow rate followed by 5 ul injection of 0.1% TFA and 5 ul injection of glycine pH 1.5 to regenerate a fully active capturing surface. […]
On the technique in general: SPR reads the build-up and loss of mass on a sensor chip optically.

The target in assay [3] is T1, human IL-22R extracellular domain-Fc …. The description is as above. As for the experimental part:
as §1, §2

For assay [4], the target named is T3, human IL-22 binding protein-Fc fusion (human, UniProt Q969J5-2 22-231, limits assumed).
T3 construct: Fc fusion homodimer, used as CHO conditioned medium; also called IL-22BP-Fc; huIL22BP-huFc; not shown: human IgG1 Fc
T3 sequence: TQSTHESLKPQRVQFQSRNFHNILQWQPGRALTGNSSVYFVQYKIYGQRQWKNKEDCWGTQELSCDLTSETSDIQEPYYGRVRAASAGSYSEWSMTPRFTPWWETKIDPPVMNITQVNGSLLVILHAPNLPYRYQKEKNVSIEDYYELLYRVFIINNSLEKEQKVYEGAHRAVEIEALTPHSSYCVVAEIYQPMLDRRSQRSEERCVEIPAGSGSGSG
As to the kind of experiment: BIAcore, Fc fusion from conditioned medium captured by anti-human IgG, IL-22 injected, 1:1 model. As for the experimental part: as §1, §2

B1: human IL-10R2 extracellular domain-Fc fusion homodimer (Fc fusion)
chain: T2 sequence 2
notes: extracellular domain; Used as CHO conditioned medium, not purified; also called IL-10R2-Fc; IL-10R2ECD-Fc; not shown: human IgG1 Fc
Take B1: the binding result in assay [1] was “no binding (tested: 100 ng/ml total Fc fusion)”.

B2: N terminal His/Flag tagged human IL-22 (ligand)
chain: GSGHHHHHHGSGDYKDDDDKAPISSHCRLDKSNFQQPYITNRTFMLAKEASLADNNTDVRLIGEKLFHGVSMSERCYLMKQVLNFTLEEVLFPQSDRFQPYMQEVVPFLARLSNRLSTCHIEGDDLHIQRNVQKLKDTVKKLGESGEIKAIGELDLLFMSLRNACI
notes: Made in CHO cells, extensively N-glycosylated; also called human h/f tagged IL-22; hIL-22
Consider B2, for which the Kd is 1.48 nM in assay [2], 41 nM in assay [3] and 3.37 nM in assay [4].

Usually Kd stands for the equilibrium constant for the complex coming apart.
